Substitutions are numbered along the chain they refer to.
T1: ABH2 Y122A (human, UniProt Q6NS38 1-261, Y122A)
T1 sequence: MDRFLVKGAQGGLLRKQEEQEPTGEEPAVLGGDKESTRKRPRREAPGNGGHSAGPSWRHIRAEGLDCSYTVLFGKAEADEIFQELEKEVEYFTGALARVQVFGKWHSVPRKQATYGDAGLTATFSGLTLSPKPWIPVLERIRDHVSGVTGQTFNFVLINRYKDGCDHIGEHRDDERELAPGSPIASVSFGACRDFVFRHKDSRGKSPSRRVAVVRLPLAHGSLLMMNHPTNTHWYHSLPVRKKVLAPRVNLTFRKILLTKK

T2: ABH2 I168A (human, UniProt Q6NS38 1-261, I168A)
T2 sequence: T1 sequence with A122Y, I168A

T3: ABH2 D173A (human, UniProt Q6NS38 1-261, D173A)
T3 sequence: T1 sequence with A122Y, D173A

B1: m1A (dsDNA)
DNA 1: AGTTCAATGATCTTCAT
DNA 2: ATGAAGATCATTGAACT
modifications: N1-methyladenine at position 10 of strand 1
B2: m3C (dsDNA)
DNA 1: AGTTCAATGATCTTCAT
DNA 2: ATGAAGATCATTGAACT
modifications: N3-methylcytosine at position 12 of strand 1

What was measured:
Test in all cases: EMSA; 0.5 mM αKG, 10 mM Mg2+, 2 mM ascorbate; EMSA: 50 mM Tris-HCl pH 8.0, 50 mM KCl, 10 mM MgCl2, 0.5 mM αKG, 2 mM Na ascorbate; 1.2 µM DNA, 0.4-12.8 µM protein; 10 min 37 °C then 5 min on ice; 10% native
Details in all cases: protein: recombinant; tags: N-terminal His6; label: 5'-FAM on strand 1; blunt
ABH2 Y122A = biological target: T1, ABH2 Y122A
ABH2 I168A = biological target: T2, ABH2 I168A
ABH2 D173A = biological target: T3, ABH2 D173A

Row | Binder | Kd (ABH2 Y122A) | Kd (ABH2 I168A) | Kd (ABH2 D173A)
1 | B1 | 2110 ± 80 nM | 2700 ± 400 nM | 2100 ± 90 nM
2 | B2 | 2490 ± 60 nM | 4100 ± 100 nM | 3090 ± 70 nM

From article PMC10377887, “Individual Contributions of Amido Acid Residues Tyr122, Ile168, and Asp173 to the Activity and Substrate Specificity of Human DNA Dioxygenase ABH2”
